Publication PMC5290278 (Nature Communications, 2017)

Target: T1, GST-NPHP4-C2^650-839 (human, UniProt O75161 650-839)
T1 construct: central C2 domain of NPHP4, residues 650-839; also called GST-N4-C2^2650-839 (as printed in the legend); GST fused to the central C2 domain of NPHP4; source: bacterially purified
T1 sequence (looked up): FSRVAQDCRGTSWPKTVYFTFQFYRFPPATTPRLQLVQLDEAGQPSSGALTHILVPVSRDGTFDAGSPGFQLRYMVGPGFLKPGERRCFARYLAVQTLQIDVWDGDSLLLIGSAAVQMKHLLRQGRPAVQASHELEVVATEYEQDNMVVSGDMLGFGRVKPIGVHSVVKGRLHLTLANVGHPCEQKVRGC
Assay: pull-down; GFP-KIF13B-C2^861-1,000 held on anti-GFP immunocomplexes, washed two times in high salt buffer (600 mM NaCl, 10 mM Tris-HCl, 0.1% NP-40); bacterially purified GST-NPHP4-C2^650-839 (500 ng/µl) added in modified EBC buffer (140 mM NaCl, 10 mM Tris-HCl, 5 mM EDTA, 0.5% NP-40); standard GFP IP
Settings: both partners purified

binding result: binds
B1: GFP-KIF13B-C2^861-1,000 (domain or fragment, human, UniProt Q9NQT8 861-1000, looked up)
chain: KETQENKLVCMVKILQATGLPQHLSHFVFCKYSFWDQQEPVIVAPEVDTSSSSVSKEPHCMVVFDHCNEFSVNITEDFIEHLSEGALAIEVYGHKINDPRKNPALWDLGIIQAKTRSLRDRWSEVTRKLEFWVQILEQNE
notes: made by PCR from the GFP-KIF13B plasmid and cloned into pEGFP-C1; also called KIF13B RPGRIP1N-C2 type domain; source: HEK293T, transfected, in lysate; also immunoisolated on anti-GFP beads with high salt washes
